From patent publication US20250346630A1, “Engineering Peptides Using Peptide Epitope Linker Evolution” (AGENCY FOR SCIENCE, TECHNOLOGY AND RESEARCH, priority 2022, published 2025)
Residue numbers refer to the chain shown, from its start. Numbers in names are those of the source.

Key:
eIF4E cap-binding site = target: T1, eIF4E cap-binding site (Homo sapiens, UniProt P06730); assay: m^7GTP^FAM competitive fluorescence anisotropy assay; conditions: read-out: Competitive Anisotropy (kd, nM) m^7GTP^FAM, non-reducing conditions, 1:1 binding model, triplicate, Kds > 20,000 denoted non-binders
T1 construct: pET11d expression plasmid containing the full-length eIF4E clone; made in house; host or cells: E. coli Rosetta pLysS

[1] = target: T2, eIF4E eIF4G interaction site (eIF4E:4G interface) (Homo sapiens, UniProt P06730); assay: eIF4G^FAM tracer peptide competitive fluorescence anisotropy assay; conditions: non-reducing conditions, 1:1 binding model, triplicate, Kds > 20,000 denoted non-binders, read-out: Competitive Anisotropy (kd, nM) eIF4AG^FAM
T2 construct: pET11d expression plasmid containing the full-length eIF4E clone; made in house; host or cells: E. coli Rosetta pLysS

[2] = target: T3, LgBiT-eIF4E:SmBiT-VH-DIF^CAP-01 interaction (eIF4E cap-binding site) (Homo sapiens, UniProt P06730); assay: NanoBIT^CAP complementation assay in HEK293 cells; type: cell-based; conditions: HEK293 cells permeabilized with sub-CMC digitonin; read-out: IC50 for disruption of LgBiT-eIF4E with SmBiT-VH-DIF^CAP-01 interaction
T3 construct: expressed in transfected cells; host or cells: HEK293

PCNA = target: T4, PCNA (Homo sapiens, UniProt P12004); assay: Anti-FLAG immunoprecipitation pull down with PCNA; type: cell-based; conditions: HEK293 cells
T4 construct: endogenous in cells; host or cells: HEK293
Description: Twenty-four hours prior to transfection or drugging, cells were seeded at a cell density of 1000.000 (HEK293) cells per well of a six-well plate (ThermoFisher Scientific). Transfections were performed using Lipofectamine 3000 (ThermoFisher Scientific) with either 2 μg or the indicated amount of plasmid vectors per well according to the manufacturer's instructions. After a 48-hour incubation period, the cell media was then removed and the cells washed with PBS saline. Cells were directly lysed in the wells with 300 μl of lysis buffer containing 20 mM Hepes pH 7.4, 100 mM NaCl, 5 mM MgCl2, 0.5% NP-40, 1 mM DTT, with protease (Roche) and phosphatase (Sigma-Aldrich) inhibitor cocktail sets added as outlined by the manufacturer's protocols. […] Beads were then washed four times with lysis buffer containing no protease or phosphatase inhibitors. This was then followed by the addition of Laemlee buffer (2×) and the beads boiled for 5 min at 95° C. Samples were centrifuged and the supernatant removed for western blot analysis.
Confluent HEK293FT cells were used to generate lentivirus for infection of target cells. Packaging cells were transfected using calcium phosphate transfection as described below. […]
Samples were resolved on midi or mini Tris-Glycine 4-20% gradient gels (Bio-Rad) according to the manufacturer's protocol. […] B-actin levels were measured to ensure equal loading.

eIF4E = target: T5, eIF4E (Homo sapiens, UniProt P06730); assay: Direct fluorescence anisotropy titration of eIF4E against labelled tracers; conditions: 50 nM tracer, 1:1 binding model
T5 construct: pET11d expression plasmid containing the full-length eIF4E clone; made in house; host or cells: E. coli Rosetta pLysS

full-length human eIF4E [3] = target: T6, full-length human eIF4E (human, UniProt P06730 2-217); assay: anti-FLAG immunoprecipitation from transfected HEK293 cells, western blot
T6 construct: mature; Used here for the purified full-length protein (anisotropy, ITC, crystals) and for endogenous eIF4E of HEK293 cells in pull-downs; also called cellular eIF4E

[4] = target: T7, proliferating cell nuclear antigen (PCNA) (human, UniProt P12004 1-261); assay: as above
T7 construct: Used here for the purified protein (anisotropy) and for endogenous PCNA of HEK293 and A375 cells in anti-FLAG pull-downs

GST-tagged eIF4E = target: T8, GST-tagged eIF4E (UniProt P06730 1-217); assay: GST pull-down on glutathione beads with GST-eIF4E, Coomassie stained SDS-PAGE
T8 construct: also called GST-eIF4E; not shown: glutathione S-transferase tag of pGEX-6P1

LgBiT-eIF4E = target: T9, LgBiT-eIF4E (UniProt P06730 1-217); assay: NanoBit split-luciferase complementation in co-transfected HEK293 cells [CONT.) B]
T9 construct: Expressed in HEK293 cells; also called LgBiT fused eIF4E; not shown: LgBiT (18-kDa NanoLuc fragment, Promega NanoBit)

full-length human eIF4E [5] = target: T6, full-length human eIF4E; assay: competitive fluorescence anisotropy, displacement of m7GTP^FAM from eIF4E

Molecule: Cn1c[n+]([C@@H]2O[C@H](COP(=O)(O)OP(=O)([O-])O)[C@@H](O)[C@H]2O)c2nc(N)[nH]c(=O)c21 [m^7GDP]
- Kd (eIF4E cap-binding site): 201 ± 25.2 nM
- Kd [1]: > 20000 nM
- IC50 [2]: 34500 nM

Molecule: YVRPRLPHMSQFES [scrambled]
- anti-FLAG pull down in complex with PCNA (PCNA): do not

Molecule: m^7GTP^5-FAM [m^7GTP^FAM]
- Kd (eIF4E): 149 nM

Molecule: m^7GTP^BIOTIN
- Kd (eIF4E cap-binding site): 34.7 ± 4 nM
- Kd [1]: > 20000 nM

B1: VH-S4 (expressed in HEK293 cells) (designed binder)
VH: MSEVQLVESGGGLVQPGGSLRLSSAISGFSISSTSIDWVRQAPGKGLEWVARISPSSGSTSYADSVKGRFTISADTSKNTVYLQMNSLRAEDTAVYYTGRVAKALNSRSPSFVVNTYSSIGFDYRGQGTLVTVSSGAA
- binding result (full-length human eIF4E [3]): binds

B2: negative control M4 (FLAG-tagged, expressed in HEK293 cells) (designed binder)
VH: B1 VH with R108S, I120F
notes: not shown: C-terminal 3x FLAG tag of the pCDNA3.1 vector
- anti-FLAG pull down in complex with PCNA (PCNA): do not
- binding result [4]: no binding

B3: VH-1C5^Scrambled (designed binder)
VH domain, His-tagged, purified: MSEVQLVESGGGLVQPGGSLRLSSAISGFSISSTSIDWVRQAPGKGLEWVARISPSSGSTSYADSVKGRFTISADTSKNTVYLQMNSLRAEDTAVYYTGRGSVLSVAFKPSVDSFSSFYNTNDYRGQGTLVTVSSGAA
notes: CDR3 loop of VH-1C5 scrambled; also called scrambled VH domain (negative control)
- binding result (GST-tagged eIF4E): no binding

B4: FLAG-tagged VH-DIF^CAP-01 MA (M104A) (expressed in HEK293 cells) (designed binder)
VH: MSEVQLVESGGGLVQPGGSLRLSSAISGFSISSTSIDWVRQAPGKGLEWVARISPSSGSTSYADSVKGRFTISADTSKNTVYLQMNSLRAEDTAVYYTGRPLPEAGFFTNIPAMVDYRGQGTLVTVSSGAA
notes: also called VH-DIF^CAP-01 mutant (M104A); VH-DIF^CAP-Cntrl; not shown: C-terminal 3x FLAG tag of the pCDNA3.1 vector
- binding result (full-length human eIF4E [3]): no binding

B5: SmBiT-VH-DIF^CAP-01 M104A (designed binder)
VH: B4 VH
notes: also called VH-DIF^CAP-01 MA fused to smBIT; not shown: SmBiT (11-amino-acid NanoLuc fragment)
- binding result (LgBiT-eIF4E): no binding

B6: SmBiT-VH-DIF^CAP-01 E103A (designed binder)
VH: B4 VH with E104A, A105M
notes: also called VH-DIF^CAP-01 EA fused to smBIT; not shown: SmBiT (11-amino-acid NanoLuc fragment)
- binding result (LgBiT-eIF4E): no binding

B7: VH-DiF^CAP-01^Cntrl (purified, His-tagged) (designed binder)
VH: B4 VH
notes: also called VH-DIF^CAP-01 MA (M104A); not shown: C-terminal six-histidine tag from pET-22b(+)
- binding result (full-length human eIF4E [5]): no binding
